According to patent US6372438:
Square brackets hold non-standard residues; d marks the D form. Ends that are not written are not given here. pY = N[C@@H](Cc1ccc(OP(=O)(O)O)cc1)C(=O)O

Target: 85 kD protein / PI3 kinase (phosphatidylinositol 3' kinase) of BALB/c 3T3 cells (mouse (BALB/c 3T3 cells))
Test: competition: range of peptide concentrations preincubated with 3T3 lysate before immobilised receptor m1; in vitro kinase and PI3 kinase assays

Chain of 85 kD protein / PI3 kinase (phosphatidylinositol 3' kinase) of BALB/c 3T3 cells (mouse (BALB/c 3T3 cells)) (P26450 2-724): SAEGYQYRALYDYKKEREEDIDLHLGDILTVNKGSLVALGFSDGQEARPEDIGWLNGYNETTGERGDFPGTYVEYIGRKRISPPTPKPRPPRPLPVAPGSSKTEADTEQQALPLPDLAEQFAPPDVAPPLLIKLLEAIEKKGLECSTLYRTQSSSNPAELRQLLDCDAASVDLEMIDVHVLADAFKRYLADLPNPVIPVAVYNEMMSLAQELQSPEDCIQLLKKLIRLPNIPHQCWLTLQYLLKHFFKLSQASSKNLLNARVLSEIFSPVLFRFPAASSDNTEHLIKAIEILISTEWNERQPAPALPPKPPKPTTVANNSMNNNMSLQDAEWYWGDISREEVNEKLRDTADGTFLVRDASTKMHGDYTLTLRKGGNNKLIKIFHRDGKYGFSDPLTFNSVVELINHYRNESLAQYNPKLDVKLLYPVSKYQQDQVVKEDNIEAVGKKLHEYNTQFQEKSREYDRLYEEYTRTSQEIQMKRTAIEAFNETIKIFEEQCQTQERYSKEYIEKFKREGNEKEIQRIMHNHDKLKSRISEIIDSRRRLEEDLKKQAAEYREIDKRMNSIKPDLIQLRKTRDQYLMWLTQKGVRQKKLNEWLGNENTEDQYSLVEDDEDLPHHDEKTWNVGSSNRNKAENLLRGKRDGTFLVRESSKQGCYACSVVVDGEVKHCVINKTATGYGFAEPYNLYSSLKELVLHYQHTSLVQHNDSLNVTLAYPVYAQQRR

GGYMDMSKDESID[pY]VPMLDM [peptide Y719P] was tested. Which IC50 did it give?
The IC50 was under 5 µM.
